# Data: patent US20170322217A1
# Molecular target: Rad50 (Homo sapiens (Human)) (UniProt Q92878)
# Assay: SILAC LC-MS/MS of anti-Flag immunoprecipitate, heavy (EVI1-Flag) over light (Flag control)
# Sequence of UniProt Q92878 (Q92878 whole entry): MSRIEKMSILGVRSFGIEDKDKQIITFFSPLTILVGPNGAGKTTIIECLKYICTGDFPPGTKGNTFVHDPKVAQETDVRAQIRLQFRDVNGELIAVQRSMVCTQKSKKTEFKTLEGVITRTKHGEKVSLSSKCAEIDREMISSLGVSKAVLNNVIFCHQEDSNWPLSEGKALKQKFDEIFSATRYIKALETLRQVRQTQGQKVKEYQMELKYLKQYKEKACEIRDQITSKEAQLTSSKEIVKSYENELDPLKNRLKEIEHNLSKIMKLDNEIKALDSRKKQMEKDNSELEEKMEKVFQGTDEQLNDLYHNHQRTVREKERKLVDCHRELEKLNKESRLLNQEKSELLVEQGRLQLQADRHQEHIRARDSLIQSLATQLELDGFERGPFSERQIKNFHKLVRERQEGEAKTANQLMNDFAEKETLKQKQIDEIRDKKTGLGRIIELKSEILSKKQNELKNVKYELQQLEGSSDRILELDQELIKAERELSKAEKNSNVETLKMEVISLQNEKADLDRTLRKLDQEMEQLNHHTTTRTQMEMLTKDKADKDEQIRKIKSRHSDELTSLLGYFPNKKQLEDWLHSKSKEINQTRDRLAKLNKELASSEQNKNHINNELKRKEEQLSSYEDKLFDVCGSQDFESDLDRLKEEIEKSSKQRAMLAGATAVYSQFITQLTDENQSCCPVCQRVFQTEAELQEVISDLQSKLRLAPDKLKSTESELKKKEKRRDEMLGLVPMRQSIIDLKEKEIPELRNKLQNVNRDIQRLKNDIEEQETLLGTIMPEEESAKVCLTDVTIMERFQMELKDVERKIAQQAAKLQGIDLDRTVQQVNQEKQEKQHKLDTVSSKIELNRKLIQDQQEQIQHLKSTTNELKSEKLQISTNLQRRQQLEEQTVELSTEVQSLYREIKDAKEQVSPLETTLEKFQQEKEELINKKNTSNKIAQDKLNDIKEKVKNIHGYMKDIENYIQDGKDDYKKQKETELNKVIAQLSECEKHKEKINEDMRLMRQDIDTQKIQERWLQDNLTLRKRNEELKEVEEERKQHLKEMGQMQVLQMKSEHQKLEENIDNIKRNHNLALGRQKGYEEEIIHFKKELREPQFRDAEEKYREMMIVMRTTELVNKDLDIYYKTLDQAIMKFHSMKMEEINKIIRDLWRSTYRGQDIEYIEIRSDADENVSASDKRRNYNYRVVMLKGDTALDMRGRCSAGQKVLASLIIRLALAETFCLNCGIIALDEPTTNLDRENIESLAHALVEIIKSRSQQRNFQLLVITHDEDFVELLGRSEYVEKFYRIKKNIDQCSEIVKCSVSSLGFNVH
substance,measurement,value
"EVI1-Flag construct (Evi1 protein with Flag tag, expressed in SKOV3 cells) (from UniProt Q03112 1-1051)",Evi1 enrichment (H/L ratio),7.11 to 47.8 H/L ratio
